Measured values taken from the supplement of paper PMC9112550, “Optimization of the antimicrobial peptide Bac7 by deep mutational scanning” (BMC Biology, 2022).

What follows are sequences tested on Escherichia coli TOP10 (assay: shrunken log2 fold change of peptide-encoding DNA abundance (4.5 h post-induction vs induction); higher = less antimicrobial activity (less host growth inhibition)). Conditions: time post-induction: 4.5 h; library: site-saturation at positions 5, 18, 19, 20.
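Also: peptides expressed intracellularly from a pBAD plasmid library in pooled LB shake-flask culture, induced with 0.3% L-arabinose, DNA abundance read by NGS, three biological replicates, DESeq2 with apeglm shrinkage.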

Row | Sequence | shrunken log2 fold change
1 | RRIRIRPPRLPRPRPRPQDRPRP | -0.007
2 | RRIRIRPPRLPRPRPRPQEIPRP | -0.581
3 | RRIRIRPPRLPRPRPRPQEPPRP | -0.04
4 | RRIRIRPPRLPRPRPRPQFCPRP | -0.32
5 | RRIRIRPPRLPRPRPRPQHHPRP | -0.875
6 | RRIRIRPPRLPRPRPRPQHVPRP | -0.211
7 | RRIRIRPPRLPRPRPRPQINPRP | -0.776
8 | RRIRIRPPRLPRPRPRPQKMPRP | -0.269
9 | RRIRIRPPRLPRPRPRPQNGPRP | -0.294
10 | RRIRIRPPRLPRPRPRPQNIPRP | -1.22
11 | RRIRIRPPRLPRPRPRPQPAPRP | 0.213
12 | RRIRIRPPRLPRPRPRPQPLPRP | -0.371
13 | RRIRIRPPRLPRPRPRPQQLPRP | -0.0183
14 | RRIRIRPPRLPRPRPRPQRRPRP | 0.19
15 | RRIRIRPPRLPRPRPRPQSKPRP | -0.493
16 | RRIRIRPPRLPRPRPRPQTEPRP | -0.168
17 | RRIRIRPPRLPRPRPRPQWQPRP | -0.182
18 | RRIRIRPPRLPRPRPRPQYAPRP | 0.0303
19 | RRIRIRPPRLPRPRPRPQYYPRP | -1.28
20 | RRIRIRPPRLPRPRPRPRAMPRP | -0.0601
21 | RRIRIRPPRLPRPRPRPRAYPRP | -0.315
22 | RRIRIRPPRLPRPRPRPREDPRP | -0.036
23 | RRIRIRPPRLPRPRPRPRFFPRP | -0.123
24 | RRIRIRPPRLPRPRPRPRFSPRP | -0.231
25 | RRIRIRPPRLPRPRPRPRGGPRP | 0.217

Row | Sequence | shrunken log2 fold change
26 | RRIRIRPPRLPRPRPRPRHAPRP | 0.128
27 | RRIRIRPPRLPRPRPRPRHHPRP | -0.408
28 | RRIRIRPPRLPRPRPRPRHMPRP | -0.12
29 | RRIRIRPPRLPRPRPRPRIVPRP | -1.21
30 | RRIRIRPPRLPRPRPRPRKHPRP | -0.252
31 | RRIRIRPPRLPRPRPRPRKPPRP | -0.0479
32 | RRIRIRPPRLPRPRPRPRLDPRP | 0.1
33 | RRIRIRPPRLPRPRPRPRLGPRP | 0.0473
34 | RRIRIRPPRLPRPRPRPRLKPRP | 0.0139
35 | RRIRIRPPRLPRPRPRPRLTPRP | -0.0559
36 | RRIRIRPPRLPRPRPRPRLWPRP | 0.0665
37 | RRIRIRPPRLPRPRPRPRMDPRP | -0.389
38 | RRIRIRPPRLPRPRPRPRMKPRP | -0.0587
39 | RRIRIRPPRLPRPRPRPRMWPRP | -0.0292
40 | RRIRIRPPRLPRPRPRPRNPPRP | -0.0124
41 | RRIRIRPPRLPRPRPRPRQQPRP | 0.0393
42 | RRIRIRPPRLPRPRPRPRRIPRP | -0.677
43 | RRIRIRPPRLPRPRPRPRSDPRP | -0.284
44 | RRIRIRPPRLPRPRPRPRSGPRP | 0.242
45 | RRIRIRPPRLPRPRPRPRSMPRP | -0.695
46 | RRIRIRPPRLPRPRPRPRTEPRP | 0.0225
47 | RRIRIRPPRLPRPRPRPRTMPRP | -0.377
48 | RRIRIRPPRLPRPRPRPRVWPRP | 0.618
49 | RRIRIRPPRLPRPRPRPRVYPRP | 0.00283
50 | RRIRIRPPRLPRPRPRPRWEPRP | 0.0225

Row | Sequence | shrunken log2 fold change
51 | RRIRIRPPRLPRPRPRPRYEPRP | -0.011
52 | RRIRIRPPRLPRPRPRPRYIPRP | -0.242
53 | RRIRIRPPRLPRPRPRPRYRPRP | -0.386
54 | RRIRIRPPRLPRPRPRPSASPRP | 0.0632
55 | RRIRIRPPRLPRPRPRPSCKPRP | -0.122
56 | RRIRIRPPRLPRPRPRPSCLPRP | -0.998
57 | RRIRIRPPRLPRPRPRPSDEPRP | -0.698
58 | RRIRIRPPRLPRPRPRPSDGPRP | -0.0648
59 | RRIRIRPPRLPRPRPRPSECPRP | -0.00498
60 | RRIRIRPPRLPRPRPRPSEGPRP | -0.0262
61 | RRIRIRPPRLPRPRPRPSEIPRP | 0.0838
62 | RRIRIRPPRLPRPRPRPSELPRP | -0.186
63 | RRIRIRPPRLPRPRPRPSHIPRP | -0.879
64 | RRIRIRPPRLPRPRPRPSLMPRP | -0.246
65 | RRIRIRPPRLPRPRPRPSLYPRP | -0.535
66 | RRIRIRPPRLPRPRPRPSMGPRP | -0.222
67 | RRIRIRPPRLPRPRPRPSNQPRP | -1.08
68 | RRIRIRPPRLPRPRPRPSNRPRP | -0.139
69 | RRIRIRPPRLPRPRPRPSPHPRP | -1.03
70 | RRIRIRPPRLPRPRPRPSREPRP | -0.0977
71 | RRIRIRPPRLPRPRPRPSSPPRP | -0.746
72 | RRIRIRPPRLPRPRPRPSSTPRP | -0.955
73 | RRIRIRPPRLPRPRPRPSTGPRP | -0.505
74 | RRIRIRPPRLPRPRPRPSTHPRP | -1.02
75 | RRIRIRPPRLPRPRPRPSVNPRP | -0.225
